This note sets out measurements from paper PMC4822050, “Hemi-methylated DNA opens a closed conformation of UHRF1 to facilitate its histone recognition” (Nature Communications, 2016).

Broadly, the Kd is the concentration at which binding is half-saturated. The low end stands for tighter binding, the high end for weaker binding.

One data set has as its target T1, SRA (human) (UniProt Q96T88).
T1 sequence: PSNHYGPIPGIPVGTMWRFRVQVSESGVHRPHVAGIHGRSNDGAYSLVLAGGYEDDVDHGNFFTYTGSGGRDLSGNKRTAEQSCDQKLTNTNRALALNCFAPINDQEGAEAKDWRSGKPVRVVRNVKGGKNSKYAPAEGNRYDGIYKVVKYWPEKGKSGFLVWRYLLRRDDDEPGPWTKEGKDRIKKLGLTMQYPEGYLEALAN
Description: FP. As to conditions: DNA length series; 5-methyl-dC (hemi-methylated CpG); ITC: 10 mM HEPES pH 8.0, 100 mM NaCl, 18 C; EMSA: 20 mM HEPES pH 7.5, 100 mM NaCl, 8% glycerol, 1 mM DTT, on ice; pull-down: 20 mM HEPES-NaOH pH 8.0, 100 mM …. (Mobility shift assays separate free from complexed probe on a gel.)

A further data set addresses T2, SRA-Spacer (human) (UniProt Q96T88).
T2 sequence: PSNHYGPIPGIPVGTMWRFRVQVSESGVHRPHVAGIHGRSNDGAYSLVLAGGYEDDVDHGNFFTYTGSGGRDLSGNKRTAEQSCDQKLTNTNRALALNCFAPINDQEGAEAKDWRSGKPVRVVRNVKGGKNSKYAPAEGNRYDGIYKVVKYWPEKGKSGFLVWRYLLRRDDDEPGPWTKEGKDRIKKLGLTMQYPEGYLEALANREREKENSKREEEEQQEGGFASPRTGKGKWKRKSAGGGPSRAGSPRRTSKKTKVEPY
As to the kind of experiment: FP. As to conditions: DNA length series; 5-methyl-dC (hemi-methylated CpG); ITC: 10 mM HEPES pH 8.0, 100 mM NaCl, 18 C; EMSA: 20 mM HEPES pH 7.5, 100 mM NaCl, 8% glycerol, 1 mM DTT, on ice; pull-down: 20 mM HEPES-NaOH pH 8.0, 100 mM ….

The target in a further data set is PHD-SRA of UHRF1 (human). Description: ITC; 0.05 mM protein in the cell, 0.5 mM protein or peptide in the syringe, iTC200, 18 °C, 10 mM HEPES pH 8.0, 100 mM NaCl. (ITC needs no label: the signal is the heat of the interaction.)
In another data set the target is UHRF1 TTD, 134-285 (UniProt Q96T88). Description: ITC. As to conditions: reference: unmodified Spacer642–664 peptide; sites S651.

Sequence of UHRF1 Spacer, 642-664 (Q96T88 134-285, change not shown): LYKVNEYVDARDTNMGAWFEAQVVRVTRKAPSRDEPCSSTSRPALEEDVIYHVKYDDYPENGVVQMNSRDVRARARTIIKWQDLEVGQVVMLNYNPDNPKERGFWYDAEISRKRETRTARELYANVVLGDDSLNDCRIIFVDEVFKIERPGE

With FAM-20bp-HM-DNA, the Kd with SRA (human) was 9.59 µM; with SRA-Spacer (human) it was 0.4 µM. The matching figures for FAM-16bp-HM-DNA: 29.4 µM and 0.39 µM. Substance “H3 peptide (1–17) (from UniProt P68431 2-18)” displayed a fold decrease in binding affinity against the PHD alone in the data set with PHD-SRA of UHRF1 (human) of 8 fold. Consider “UHRF1 Spacer, 642-664 (from UniProt Q96T88) pS651 Spacer642–664 peptide”, for which the “binding against the reference” value in the data set with UHRF1 TTD, 134-285 is reported as “weaker”.
